Measured values as given in US20150037348A1.

Tests used:
[1] = target: cynomolgus IL-12 (PBMC supernatant) (cynomolgus monkey); test: cell-based or functional assay
[2] = target: recombinant human IL-12 (rhIL-12) (human) (UniProt P29459); test: cell-based or functional assay
[3] = target: recombinant rhesus IL-12 (rhesus monkey) (UniProt P48091); test: cell-based or functional assay
[4] = target: baboon IL-12 (PBMC supernatant) (baboon); test: cell-based or functional assay
[5] = target: recombinant murine IL-12 (mouse) (UniProt P43431); test: receptor binding assay, 125I-murine IL-12 on 2D6 cells
[6] = target: recombinant murine IL-12 (mouse) (UniProt P43431); test: cell-based or functional assay
[7] = target: recombinant murine IL-12 (mouse) (UniProt P43431); test: biomolecular interaction assay, C17.15 captured via goat anti-rat IgG, murine IL-12 in solution

Chain of recombinant murine IL-12 (mouse) (P43431 23-215, chain 1 of 2): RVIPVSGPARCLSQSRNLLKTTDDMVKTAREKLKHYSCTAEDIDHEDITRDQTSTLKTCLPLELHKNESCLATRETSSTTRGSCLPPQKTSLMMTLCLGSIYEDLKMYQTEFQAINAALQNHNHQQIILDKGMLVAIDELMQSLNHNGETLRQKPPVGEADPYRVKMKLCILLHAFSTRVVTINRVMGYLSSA
Chain of recombinant murine IL-12 (mouse) (P43432 23-335, chain 2 of 2, further chain): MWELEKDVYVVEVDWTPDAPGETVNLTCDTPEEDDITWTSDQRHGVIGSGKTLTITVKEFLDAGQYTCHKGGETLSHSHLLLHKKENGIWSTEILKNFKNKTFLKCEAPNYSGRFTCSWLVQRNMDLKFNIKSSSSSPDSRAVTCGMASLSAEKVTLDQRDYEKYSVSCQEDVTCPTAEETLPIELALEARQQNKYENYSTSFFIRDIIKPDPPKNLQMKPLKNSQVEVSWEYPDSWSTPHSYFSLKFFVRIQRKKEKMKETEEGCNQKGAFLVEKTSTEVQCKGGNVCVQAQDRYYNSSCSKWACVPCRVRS
Chain of recombinant human IL-12 (rhIL-12) (human) (P29459 23-219, chain 1 of 2): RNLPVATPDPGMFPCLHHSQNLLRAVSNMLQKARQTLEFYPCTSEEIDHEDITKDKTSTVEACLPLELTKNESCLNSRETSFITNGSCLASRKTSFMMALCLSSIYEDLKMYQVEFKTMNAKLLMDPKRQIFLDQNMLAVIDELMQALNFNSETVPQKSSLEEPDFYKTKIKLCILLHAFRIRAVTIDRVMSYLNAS
Chain of recombinant human IL-12 (rhIL-12) (human) (P29460 23-328, chain 2 of 2, further chain): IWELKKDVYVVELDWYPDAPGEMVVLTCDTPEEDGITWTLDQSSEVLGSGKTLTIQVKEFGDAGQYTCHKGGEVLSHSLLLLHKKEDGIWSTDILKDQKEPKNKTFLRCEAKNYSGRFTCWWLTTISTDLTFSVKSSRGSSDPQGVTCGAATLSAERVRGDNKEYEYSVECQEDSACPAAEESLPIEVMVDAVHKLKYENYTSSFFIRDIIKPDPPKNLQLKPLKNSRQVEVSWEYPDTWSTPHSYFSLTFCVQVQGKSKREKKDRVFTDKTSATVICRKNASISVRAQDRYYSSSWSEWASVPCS
Chain of recombinant rhesus IL-12 (rhesus monkey) (P48091 23-219, chain 1 of 2): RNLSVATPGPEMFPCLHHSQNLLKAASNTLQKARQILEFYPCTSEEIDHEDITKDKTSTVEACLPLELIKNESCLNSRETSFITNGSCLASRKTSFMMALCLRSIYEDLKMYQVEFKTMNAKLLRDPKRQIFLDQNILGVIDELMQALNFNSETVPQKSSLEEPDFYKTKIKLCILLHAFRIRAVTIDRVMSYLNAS
Chain of recombinant rhesus IL-12 (rhesus monkey) (P48095 23-328, chain 2 of 2, further chain): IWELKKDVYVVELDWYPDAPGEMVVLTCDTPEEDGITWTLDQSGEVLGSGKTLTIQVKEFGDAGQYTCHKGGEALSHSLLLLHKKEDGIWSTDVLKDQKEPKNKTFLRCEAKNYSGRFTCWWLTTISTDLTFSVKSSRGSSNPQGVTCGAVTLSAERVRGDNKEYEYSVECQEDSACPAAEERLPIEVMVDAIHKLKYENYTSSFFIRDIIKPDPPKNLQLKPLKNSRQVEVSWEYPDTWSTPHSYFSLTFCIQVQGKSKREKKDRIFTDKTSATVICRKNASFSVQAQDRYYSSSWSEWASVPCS

Substance: C8.6.2 (antibody)
- IC50 (M), bioassay, Cyno IL-12 PBMC sup [1]: 1.2e-10 M
- IC50 (M), bioassay, Human IL-12 Purified [2]: 5e-11 M
- IC50 (M), bioassay, Rhesus IL-12 Purified [3]: 1e-10 M
- IC50 (M), bioassay, Baboon IL-12 PBMC sup [4]: 2e-10 M

Substance: C17.15 (antibody)
- IC50 [5]: 0.15 nM
- IC50 (M), bioassay, Mouse IL-12 Purified [6]: 3e-11 M
- PHA blast IC50 [6]: 0.014 nM
- Kd [7]: 0.48 nM
- koff [7]: 0.000184 s⁻¹
- kon [7]: 380000 M⁻¹ s⁻¹
